# Test results: patent US20260201058A1 (SICHUAN HUIYU PHARMACEUTICAL, published 2026)
# Residue numbers refer to the chain shown, from its start.
# B1: alpaca nanobody 3C6 (VHH)
# VHH: EVQLVESGGGLVQAGESLRLSCAVSGNIGSIRHMGWHRQDPGKERELVATITTVGTTYYANFVKGRFTISRDNAKNTVYLQMNSLKPEDTGVYYCRATAHPTDYWGQGTQVTVSS
# notes: also called anti-MSLN nanobody 3C6
# B2: 3C6 hu-5 (Fc fusion)
# chain: EVQLVESGGGLIQPGGSLRLSCAASGNIGSIRHMGWHRQAPGKERELVSTITTVGTTYYANFVKGRFTISRDNSKNTLYLQMNSLRAEDTAVYYCRATAHPTDYWGQGTLVTVSSGGGGSGGGGSDKTHTCPPCPAPEAAGAPSVFLFPPKPKDTLMISRTPEVTCVVVDVSHEDPEVKFNWYVDGVEVHNAKTKPREEQYNSTYRVVSVLTVLHQDWLNGKEYKCAVSNKALPAPIEKTISKAKGQPREPQVYTLPPSRDELTKNQVSLTCLVKGFYPSDIAVEWESNGQPENNYKTTPPVLDSDGSFFLYSKLTVDKSRWQQGNVFSCSVMHEALHNHYTQKSLSLSP
# notes: Humanized VHH-Fc antibody: VHH, linker, human IgG1 Fc
# B3: 3C6 hu-3 (Fc fusion)
# chain: B2 chain with R45L
# notes: as for B2
# B4: 3C6 hu-1 (Fc fusion)
# chain: B2 chain with H37V, E44G, R45L, L47W
# notes: as for B2
# B5: 3C6 hu-6 (Fc fusion)
# chain: B2 chain with S49A
# notes: as for B2
# B6: 3C6 hu-2 (Fc fusion)
# chain: B2 chain with E44G, R45L
# notes: as for B2
# B7: 3C6 hu-7 (Fc fusion)
# chain: B2 chain with L47W, S49A
# notes: as for B2
# B8: 3C6 hu-4 (Fc fusion)
# chain: B2 chain with E44G
# notes: as for B2
# B9: 3C6 hu-8 (Fc fusion)
# chain: B2 chain with H37V, S49A
# notes: as for B2
# Target: T1, hFc-tagged human MSLN recombinant protein (huMSLN-hFc, Kactus Biosystems, MSL-HM280) (human, UniProt Q13421 296-580)
# T1 construct: Bought protein; also called huMSLN-Fc; human MSLN-Fc
# Test: Carterra HC30M chip, antibody captured via anti-DYKDDDDK, antigen as analyte
# Experimental: (§1) The anti-[…] antibody was bound to the HC30M chip via amino coupling, and then 2 μg/mL of MSLN single-domain antibody was captured. After the baseline was stabilized, gradient diluted huMSLN-Fc (Kactus Biosystems, MSL-HM280) and cynoMSLN-Fc (Kactus Biosystems, MSL-CM280) (starting from 100 nM, gradient dilution) were flowed through the chip from low to high concentrations, respectively, with a binding time of 8 minutes and a dissociation time of 20 minutes. Kinetic constants were obtained by fitting with Carteria software.
# T1 sequence (Q13421 other isoform, or with tags, fused parts or gaps): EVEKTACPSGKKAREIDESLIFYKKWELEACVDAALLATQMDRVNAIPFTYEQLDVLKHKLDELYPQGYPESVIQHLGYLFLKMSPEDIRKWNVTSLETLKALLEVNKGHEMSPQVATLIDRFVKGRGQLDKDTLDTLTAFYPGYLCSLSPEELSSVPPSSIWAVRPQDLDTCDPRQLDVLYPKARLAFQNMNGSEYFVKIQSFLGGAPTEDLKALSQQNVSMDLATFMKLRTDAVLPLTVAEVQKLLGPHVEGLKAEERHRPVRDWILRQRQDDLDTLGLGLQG
Kd,koff,kon,Binder
5.66 nM,0.000304 s⁻¹,53600 M⁻¹ s⁻¹,B1
2.26 nM,0.00175 s⁻¹,772000 M⁻¹ s⁻¹,B2
3.56 nM,0.00218 s⁻¹,611000 M⁻¹ s⁻¹,B3
2.69 nM,0.00187 s⁻¹,695000 M⁻¹ s⁻¹,B4
2.25 nM,0.00185 s⁻¹,820000 M⁻¹ s⁻¹,B5
13.5 nM,0.00732 s⁻¹,540000 M⁻¹ s⁻¹,B6
4.94 nM,0.00277 s⁻¹,560000 M⁻¹ s⁻¹,B7
4.89 nM,0.00471 s⁻¹,963000 M⁻¹ s⁻¹,B8
12 nM,0.0315 s⁻¹,2.63e+06 M⁻¹ s⁻¹,B9

# Target: T2, cynoMSLN-Fc (Kactus Biosystems, MSL-CM280) (cyno (monkey))
# T2 construct: Bought protein; also called monkey MSLN
# Test: as above
# Experimental: as §1
Kd,koff,kon,Binder
1.04 nM,4.69e-05 s⁻¹,45300 M⁻¹ s⁻¹,B1
1.66 nM,0.000914 s⁻¹,551000 M⁻¹ s⁻¹,B2
2.74 nM,0.00125 s⁻¹,455000 M⁻¹ s⁻¹,B3
3.67 nM,0.00151 s⁻¹,412000 M⁻¹ s⁻¹,B4
1.78 nM,0.00115 s⁻¹,644000 M⁻¹ s⁻¹,B5
11.4 nM,0.00426 s⁻¹,374000 M⁻¹ s⁻¹,B6
4.79 nM,0.00244 s⁻¹,510000 M⁻¹ s⁻¹,B7
5.58 nM,0.00285 s⁻¹,511000 M⁻¹ s⁻¹,B8
17.3 nM,0.0165 s⁻¹,956000 M⁻¹ s⁻¹,B9
